This is an account of results in patent publication US20090093061.

For the data set, the system named is GroEL having Aspartate 490 substituted with Cysteine, biotinylated and conjugated onto NeutrAvidin beads.

In the case of mitochondrial malate dehydrogenase, the “refolding of denatured mMDH (conversion of NADH to NAD+ in the presence of oxaloacetate, OD at 340 nm)” value is “positive GroEL-490 activity was confirmed by a reduction in OD at 340 nm with respect to the control”.
